Measured values published in PMC7501274.

Assays:
[1] = molecular target: CsaC-H228A (Neisseria meningitidis serogroup A); experiment: crystal structure; sitting drop, PEG200, HEPES pH 7.0/7.6; two protein molecules in the asymmetric unit, tetrameric assembly in the crystal packing; apo, CPS-DP4-soaked (wild type) and acetyl-CoA-soaked (H228A) crystals
[2] = molecular target: capsule O-acetyltransferase CsaC, wild type (Neisseria meningitidis serogroup A); experiment: as above
[3] = molecular target: capsule O-acetyltransferase CsaC, wild type (Neisseria meningitidis serogroup A); experiment: AUC; sedimentation velocity (3.0 to 40.9 µM CsaC, 35,000 rpm) and sedimentation equilibrium (9.1 and 40.9 µM CsaC, single species model), 20 °C, 50 mM HEPES pH 7.0, 0.1 M NaCl, 5 mM MgCl2, 1 mM EDTA

| Substance | stoichiometry N [1] | stoichiometry N [2] | stoichiometry N [3] |
| --- | --- | --- | --- |
| CsaC-H228A (enzyme) | 4 | – | – |
| capsule O-acetyltransferase CsaC, wild type (enzyme) | – | 4 | 4 |
